Results: patent US20240409645A1
Positions count from the first letter of the chain named.

T1: mouse IL-2Rβ (mouse) (UniProt P16297)
T1 sequence (looked up): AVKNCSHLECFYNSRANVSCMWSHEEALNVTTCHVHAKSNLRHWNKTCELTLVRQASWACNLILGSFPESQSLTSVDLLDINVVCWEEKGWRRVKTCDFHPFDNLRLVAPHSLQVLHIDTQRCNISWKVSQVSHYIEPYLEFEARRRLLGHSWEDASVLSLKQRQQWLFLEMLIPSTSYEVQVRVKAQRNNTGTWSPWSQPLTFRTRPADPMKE

T2: cynomolgus monkey IL-2Rβ/CD122 subunit (cynomolgus monkey) (UniProt Q38J85)
T2 sequence (looked up): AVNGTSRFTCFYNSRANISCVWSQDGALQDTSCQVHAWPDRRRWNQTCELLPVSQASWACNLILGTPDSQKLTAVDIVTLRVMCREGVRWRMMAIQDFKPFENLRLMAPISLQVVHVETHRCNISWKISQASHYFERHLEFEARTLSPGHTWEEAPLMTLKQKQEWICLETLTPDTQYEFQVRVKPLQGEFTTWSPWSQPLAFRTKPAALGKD

T3: human interleukin-2 receptor β-chain (IL-2Rβ; CD122), recombinant protein (human) (UniProt P14784)
T3 sequence: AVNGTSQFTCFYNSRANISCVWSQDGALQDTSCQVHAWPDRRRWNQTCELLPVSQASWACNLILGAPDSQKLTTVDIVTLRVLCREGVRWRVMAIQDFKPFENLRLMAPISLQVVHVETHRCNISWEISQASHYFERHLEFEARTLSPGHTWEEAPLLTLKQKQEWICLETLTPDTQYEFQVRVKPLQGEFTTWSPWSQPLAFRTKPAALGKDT

T4: mouse IL-2Rα (mouse) (UniProt P01590)
T4 sequence (looked up): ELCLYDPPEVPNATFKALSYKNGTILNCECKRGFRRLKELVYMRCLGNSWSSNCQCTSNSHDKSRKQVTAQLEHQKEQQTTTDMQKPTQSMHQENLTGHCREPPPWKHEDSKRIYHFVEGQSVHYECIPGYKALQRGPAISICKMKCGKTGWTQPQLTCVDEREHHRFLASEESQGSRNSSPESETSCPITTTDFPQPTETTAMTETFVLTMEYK

B1: 20-MP03F10 VHH (periplasmic extract) (VHH)
VHH: EVQLVESGGGLVQAGGSLRLSCAASGRDFSSYAMGWFRQAPGKEREFVVAITWTKRSTDFPDSVKGRFTISRDNAKNTVYLDMNSLKPEDTAVYYCASARGLPVTPLGDIIYWGEGTLVTVSS
B2: 15-MP02E06 VHH (periplasmic extract) (VHH)
VHH: QVQLVESGGGSVQPGGSLRLSCAASGFTFSNYAMSWVRQAPGKGLEWVASITGFGRGTDYADSVKGRFTISRDNAEDTLYLQMNSLKPEDTAVYYCAKYSSSTYYPPTPARGRDYRGQGTQVTVSS
B3: 22-MP03F12 VHH (periplasmic extract) (VHH)
VHH: EVQLVESGGGLVQAGGSLRLSCAASGSIFSINAMAWFRQVPGMERELVAAISRDGGASVYRDSVKGRFTISRDNSKNTVYLQMNTLKPEDTAIYVCAATRAIGWTARWITTDFDFWGQGTQVTVSS
B4: 18-MP03C03 VHH (periplasmic extract) (VHH)
VHH: QVQLVESGGGLVQPGGSLRLSCAISGGTLDSYGIGWVRQAPGKQREGVSCMSRSDDRTYYADSVKGRFTISKDSAKNTVYLQMTSLKPEDTAVYYCAAVDAYGCSLVQPTTYDFWGLGTQVTVSS
B5: 17-MP02C09 VHH (periplasmic extract) (VHH)
VHH: QVQLQESGGGLVQAGGSLRLSCVASGSVSSINGMAWYRQGADNQRVLVAAISRVGNTAYGDSVKGRFTISRQNARNTVYLQMNSLKPEDTAVYYCNADSWGGDDYWGQGTQVTVSS
B6: 16-MP02B08 VHH (periplasmic extract) (VHH)
VHH: EVQLVESGGGLVQAGGSLRLSCAASGRAIENYPVGWFRQAPGKEREFVAAITWISGSTLYADSVKGRFTISRDNAKNTVYLQMSSLKPEDTALYYCAAALKTITRGQNDYSYWGQGTQVTVSS
B7: 19-MP03F08 VHH (periplasmic extract) (VHH)
VHH: EVQLVESGGGLVQTGGSLRLSCAASGGTFSRDAMAWFRQVPGKEREFVALISWSGATTNYADSVKGRFAISRDNGKNTVYLQMNRLKPADTAIYYCAADRRPMGSRSYFEPTEYDDWGQGTQVTVSS
B8: 24-MP06E05 VHH (periplasmic extract) (VHH)
VHH: QVQLVESGGELVQGGASLRLSCAASGRTFSNANMAWFRQAPEKEREFVALITWSSGSTLYADSVKGRFTISRDNARKMVYLQMNSLKPEDTAVYYCAADGPPYSGTYYRYDTYDYWGQGTQVTVSS
B9: 6-MP01G05 VHH-hFc, monospecific monovalent (Fc fusion, part only; not given: Both Fc arms and linker, not shown: another chain or arm of the molecule; a dimerising Fc or GST; small tags and cut ends)
VHH: QVQLQESGGGLVQAGGSLRLSCAASGRTFSSYAMGWFRQAPGKEREFVAVISWNVDNTEYTDSVKGRFTISRDNDKNMVYLQMNSLKPEDTAVYYCAADSIPLSSDMSPTATEYGYWGQGTQVTVSS
B10: 3-MP01E03 VHH-hFc, monospecific monovalent (Fc fusion, part only; not given: Both Fc arms and linker, not shown: another chain or arm of the molecule; a dimerising Fc or GST; small tags and cut ends)
VHH: QVQLVESGGGLVQAGGSLRLSCTASGRTLSSYSMAWFRQAADKGREFVTAISSSGVVTHVLDSVKGRFTISRDNAKNTVYLQMNSLQPEDTALYFCAGTASSYSTYEANYNYWGQGTLVTVSS
B11: 9-MP05G01 VHH-hFc, monospecific monovalent (Fc fusion, part only; not given: Both Fc arms and linker, not shown: another chain or arm of the molecule; a dimerising Fc or GST; small tags and cut ends)
VHH: EVQLVESGGGLVQAGGSLRLSCAASGGSIYTYNMGWFRQAPGKEREFVAGTLWSGGDSVYADFAKGRFTLSRENAKNTLYLQMNSLKPEDTATYYCAIDPLSLTSDWRVDELSSWGKGTLVTVSS
B12: 10-MP05F03 VHH-hFc, monospecific monovalent (Fc fusion, part only; not given: Both Fc arms and linker, not shown: another chain or arm of the molecule; a dimerising Fc or GST; small tags and cut ends)
VHH: QVQLVESGGGLVQAGGSLRLSCAASGIPFDNYAMGWFRQAPGKEREFVAARDLEGIITRYGDSVKGRFTISRGNAKNTVFLQMNSLKPEDTAVYYCAARDGGVVAGSRSSAQYNYWGQGTQVTVSS
B13: 11-MP05H04 VHH-hFc, monospecific monovalent (Fc fusion, part only; not given: Both Fc arms and linker, not shown: another chain or arm of the molecule; a dimerising Fc or GST; small tags and cut ends)
VHH: QLQLVESGGGLVQAGGSLRLSCAASGLTFEGYAIGWFRQAPGKEREGVSYITGSDGTTYYINSVKGRFTISSDNAKSTVYLQMNTLKPEDTAVYYCAVDRLGSQGRYASAWWRSGDMDLWGKGTQVTVSS
B14: 7-MP01G08 VHH-hFc, monospecific monovalent (Fc fusion, part only; not given: Both Fc arms and linker, not shown: another chain or arm of the molecule; a dimerising Fc or GST; small tags and cut ends)
VHH: EVQLVESGGGLVQAGGSLRLSCAASGRAFSMYNMGWFRQAPGKEREFVAATGWSGANTPYADSVKGRFTISRDNTQNTVYLQMNSLKPEDTATYYCAADSIRLRSDVTRIPLEYDYWGQGTQVTVSS
B15: 5-MP01F05 VHH-hFc, monospecific monovalent (Fc fusion, part only; not given: Both Fc arms and linker, not shown: another chain or arm of the molecule; a dimerising Fc or GST; small tags and cut ends)
VHH: EVQLVESGGGLVQAGGSLRLSCAASIRAFTTWSMAWFRQAPGKEREYVARINVSGSVTYYADFVKGRFTISRDNAKKTMYLEMNNLKPEDTALYYCAADRTGVGTNDYNYWGQGTQVTVSS
B16: 12-MP05B12 VHH-hFc, monospecific monovalent (Fc fusion, part only; not given: Both Fc arms and linker, not shown: another chain or arm of the molecule; a dimerising Fc or GST; small tags and cut ends)
VHH: QVQLVESGGGLVQAGGSLRLSCAASGFTFDGYAIGWFRQAPGKEREGVSYITGSDGSTYYADSVKGRFTISSNNAKNTVYLHMNSLKPDDAAVYYCAIDRLGSRGAYVPIWWRSSDMDLWGKGTLVTVSS
B17: 2-MP01A02 VHH-hFc, monospecific monovalent (Fc fusion, part only; not given: Both Fc arms and linker, not shown: another chain or arm of the molecule; a dimerising Fc or GST; small tags and cut ends)
VHH: QVQLVESGGGLVQPGGSLRLSCATSGFTFRNNFMSWVRQAPGKGLEWVSTISYGGESTTYAESVKGRFTISRDNAKNTLYLQMNNLKPEDTAVYYCAKATSYDSIRSGSRGQGTQVTVSS
B18: 8-MP01C12 VHH-hFc, monospecific monovalent (Fc fusion, part only; not given: Both Fc arms and linker, not shown: another chain or arm of the molecule; a dimerising Fc or GST; small tags and cut ends)
VHH: B17 VHH with R30S, W47F, S63A, V93I, D103T, S107G, G108A, S109P
B19: 1-MP01H01 VHH-hFc, monospecific monovalent (Fc fusion, part only; not given: Both Fc arms and linker, not shown: another chain or arm of the molecule; a dimerising Fc or GST; small tags and cut ends)
VHH: EVQLVESGGGLVQAGGSLRLSCAASGRTFRTHNMGWFRRAPGKEREFVAAISWNVDNTLYADSVKGRFTISRDNGRNMVYLQMNSLKPEDTAVYYCAADNIPLSSDVAATATEYDYWGQGTQVTVSS
B20: 4-MP01F04 VHH-hFc, monospecific monovalent (Fc fusion, part only; not given: Fc arms with stated mutations, not shown: another chain or arm of the molecule; a dimerising Fc or GST; small tags and cut ends)
VHH: B19 VHH with E1Q, R27G, H32R, I51V, T58K, V107M, A108R, A109P
B21: 16-MP02B08 VHH-hFc, monospecific monovalent (Fc fusion, part only; not given: Both Fc arms and linker, not shown: another chain or arm of the molecule; a dimerising Fc or GST; large carriers; small tags and cut ends)
VHH: B6 VHH
B22: 20-MP03F10 VHH-hFc, monospecific monovalent (Fc fusion, part only; not given: Both Fc arms and linker, not shown: another chain or arm of the molecule; a dimerising Fc or GST; large carriers; small tags and cut ends)
VHH: B1 VHH
B23: 15-MP02E06 VHH-hFc, monospecific monovalent (Fc fusion, part only; not given: Both Fc arms and linker, not shown: another chain or arm of the molecule; a dimerising Fc or GST; small tags and cut ends)
VHH: B2 VHH
B24: 18-MP03C03 VHH-hFc, monospecific monovalent (Fc fusion, part only; not given: Both Fc arms and linker, not shown: another chain or arm of the molecule; a dimerising Fc or GST; large carriers; small tags and cut ends)
VHH: B4 VHH
B25: FJ1427_P035MP01B12 (VHH)
VHH: QVQLQESGGGLVQAGDSLRLSCAASGRSFRNYILAWYRQAPGKEREFLAAISWLDGTFYANSVEGRFTISRDNPKNTVHLQMDGLKPEDTAVYYCAADRGPVRPVLAPDVDYWGQGTQVTVAS

biological target: T1, mouse IL-2Rβ (mouse); assay: P.E. binding ELISA

Binder	OD450 nm [OD450 nm]
B1	0.048
B2	0.048
B3	0.048
B4	0.048
B5	0.047
B6	0.048
B7	0.049
B8	0.046

biological target: cynomolgus monkey IL-2Rα/CD25 subunit (cynomolgus monkey) (UniProt H6WS54); assay: ELISA, monovalent VHH-hFc
Sequence (H6WS54 entry or part of it): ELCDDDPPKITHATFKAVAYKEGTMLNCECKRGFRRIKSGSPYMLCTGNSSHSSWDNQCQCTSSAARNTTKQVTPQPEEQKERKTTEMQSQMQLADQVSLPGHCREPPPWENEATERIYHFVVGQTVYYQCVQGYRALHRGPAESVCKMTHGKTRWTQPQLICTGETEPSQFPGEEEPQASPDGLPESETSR

Binder	EC50 [nM]
B9	0.317
B10	1.15
B11	0.074
B12	0.098
B13	1.25
B14	0.133
B15	0.136
B16	1.1
B17	0.096
B18	0.069
B19	0.498
B20	0.074

biological target: T2, cynomolgus monkey IL-2Rβ/CD122 subunit (cynomolgus monkey); assay: ELISA, monovalent VHH-hFc

Binder	EC50 [nM]
B21	0.28

biological target: human interleukin-2 receptor α-chain (IL-2Rα; CD25), recombinant protein (human) (UniProt P01589); assay: ELISA, monovalent VHH-hFc
Sequence (P01589 22-240 limits assumed): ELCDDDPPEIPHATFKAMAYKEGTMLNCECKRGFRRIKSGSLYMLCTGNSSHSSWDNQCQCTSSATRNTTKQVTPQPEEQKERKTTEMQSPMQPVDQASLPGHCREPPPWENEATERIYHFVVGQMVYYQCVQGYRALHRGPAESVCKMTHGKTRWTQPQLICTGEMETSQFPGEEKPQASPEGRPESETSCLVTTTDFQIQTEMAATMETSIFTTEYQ

Binder	EC50 [nM]
B9	0.27
B10	0.086
B11	0.078
B12	0.105
B13	0.378
B14	0.173
B15	0.088
B16	0.13
B17	0.074
B18	0.065
B19	0.478
B20	0.077

biological target: T3, human interleukin-2 receptor β-chain (IL-2Rβ; CD122), recombinant protein (human); assay: ELISA, monovalent VHH-hFc

Binder	EC50 [nM]
B22	0.197
B23	0.64
B24	0.373
B21	0.215

biological target: T4, mouse IL-2Rα (mouse); assay: ELISA, P.E. on coated antigen

Binder	OD (PE binding ELISA) [OD450 nm]
B25	0.046

biological target: cynomolgus monkey IL-2Rα/CD25 subunit (cynomolgus monkey) (UniProt H6WS54); assay: ELISA, monovalent; EC50 cyno vs human subunit

Binder	Fold change [fold]
B9	1.2
B10	13.4
B11	1
B12	0.9
B13	3.3
B14	0.8
B15	1.5
B16	8.5
B17	1.3
B18	1.1
B19	1
B20	1

biological target: T2, cynomolgus monkey IL-2Rβ/CD122 subunit (cynomolgus monkey); assay: ELISA, monovalent; EC50 cyno vs human subunit

Binder	Fold change [fold]
B21	1.3
